Test results: article PMC11088715, “CsEXL3 regulate mechanical harvest-related droopy leaves under the transcriptional activation of CsBES1.2 in tea plant”

Assays:
CsBES1.2-MBP [1] = target: T1, CsBES1.2-MBP (Camellia sinensis (cDNA from cv. …, UniProt UPI0010362774 1-322)); assay: EMSA; weaker than P2 E-box probe per text; Beyotime Chemiluminescent EMSA Kit; 6.5% polyacrylamide gel, 60 V 65 min; binding buffer, salt, pH and temperature not stated; conditions: protein: recombinant; tags: MBP (pMAL-c5x); label: 5' biotin (probe); blunt
T1 sequence: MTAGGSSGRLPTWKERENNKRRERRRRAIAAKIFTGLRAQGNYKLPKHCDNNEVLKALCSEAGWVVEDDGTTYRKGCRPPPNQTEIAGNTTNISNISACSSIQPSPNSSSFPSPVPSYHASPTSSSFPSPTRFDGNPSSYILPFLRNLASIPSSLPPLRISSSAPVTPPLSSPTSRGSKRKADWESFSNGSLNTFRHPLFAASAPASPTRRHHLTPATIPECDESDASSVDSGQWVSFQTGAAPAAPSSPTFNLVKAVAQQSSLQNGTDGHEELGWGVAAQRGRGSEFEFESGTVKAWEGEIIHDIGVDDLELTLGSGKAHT

CsBES1.2-MBP [2] = target: T1, CsBES1.2-MBP; assay: EMSA; outcompeted by unlabeled probe; stronger than P1 per text; Beyotime Chemiluminescent EMSA Kit; 6.5% polyacrylamide gel, 60 V 65 min; binding buffer, salt, pH and temperature not stated; conditions: protein: recombinant; tags: MBP (pMAL-c5x); label: 5' biotin (probe); blunt
CsBES1.2-MBP [3] = target: T1, CsBES1.2-MBP; assay: competition; unlabeled mutant vs biotin-P2 probe; did not outcompete; Beyotime Chemiluminescent EMSA Kit; 6.5% polyacrylamide gel, 60 V 65 min; binding buffer, salt, pH and temperature not stated; conditions: protein: recombinant; tags: MBP (pMAL-c5x); label: unlabeled; blunt

B1: CsEXL3 promoter P1 (BRRE-box) probe (dsDNA)
DNA 1: GCGAGGCGACGAGGCGGAGG
DNA 2: CCTCCGCCTCGTCGCCTCGC
- binding result (CsBES1.2-MBP [1]): binds

B2: CsEXL3 promoter P2 (E-box) probe (dsDNA)
DNA 1: TGAATCCCACGTGTGCAGAACT
DNA 2: AGTTCTGCACACGTGGGATTCA
- binding result (CsBES1.2-MBP [2]): binds

B3: Mutant CsEXL3 promoter P2 competitor (dsDNA)
DNA 1: TGAATCCAAAAAATGCAGAACT
DNA 2: AGTTCTGCATTTTTTGGATTCA
- binding result (CsBES1.2-MBP [3]): no binding
